Measured values taken from patent US20030114379A1 (Human Genome Sciences, published 2003).

Assays:
[1] = target: the molecule itself; experiment: sedimentation equilibrium analytical ultracentrifugation for self-association, at several pH values and ionic strengths (Table 10, State 'M')
Experimental: Sedimentation Equilibrium. Analytical ultracentrifugation experiments were performed on a Beckman model XL-A ultracentrifuge at 20° C. at rotor speeds 23,000, 28,000 and 40,000 rpm. Experiments were carried out at two different starting concentrations in different buffers and ionic strength to study their effect on dimerization (Table 10). Absorbance was measured at 280 nm and the data was collected as an average of five successive radial scans using a 0.003 cm step size. The data was fitted to the following equation: […]
Sedimentation equilibrium. Chemokine ability to associate is dependent on solution conditions such as pH and ionic strength. The association properties of the MPIF-1 and the full length MPIF-1 were studied using ultracentrifugation methods at different pH and ionic strengths. […] The monomeric state of MPIF-1 is consistent with the NMR structure and also from the calculation of the correlation time from ¹⁵N dynamics.

[2] = target: cell surface receptor for MIP-1α (on human monocytes) (human); experiment: cell-based or functional assay

Binder | binding result [1] | intracellular calcium mobilization in human monocytes, activity relative to wild type MPIF-1 [2] [fold]
MPIF-1Δ23 (truncated human MPIF-1 lacking the 23 N-terminal amino acids of the mature protein, with an N-terminal Met; 77 amino acids, 8.85 kDa) (ligand, Delta 23) MDRFHATSADCCISYTPRSIPCSLLESYFETNSECSKPGVIFLTKKGRRFCANPSDKQVQVCMRMLKLDTRIKTRKN | no binding | –
MPIF-1 Mutant-1 (the 'mature' MPIF-1 for E. coli expression, wild type with an N-terminal methionine) (ligand) MRVTKDAETEFMMSKLPLENPVLLDRFHATSADCCISYTPRSIPCSLLESYFETNSECSKPGVIFLTKKGRRFCANPSDKQVQVCMRMLKLDTRIKTRKN | – | ~2
